Data: PMC7984459

Biological target: Epac1-camps-PDE4A1
Assay: molecular brightness analysis

stoichiometry N: 2
Substance: Epac1-camps-PDE4A1
